± gives the standard deviation of the averaged measurements.
Assay: total protein half-life in vivo (active degradation + dilution); higher = more stable protein
[1] = E. coli NCM3722 delta-clpP delta-lon delta-hslV, growth: N-lim chemostat, doubling time 6 h
[2] = E. coli NCM3722 delta-clpP, growth: N-lim chemostat, doubling time 6 h
[3] = E. coli NCM3722 delta-hslV, growth: N-lim chemostat, doubling time 6 h
[4] = E. coli NCM3722 delta-lon, growth: N-lim chemostat, doubling time 6 h
[5] = E. coli NCM3722 delta-smpB, growth: N-lim chemostat, doubling time 6 h
[6] = wild type E. coli NCM3722, growth: C-lim chemostat, doubling time 3 h
[7] = wild type E. coli NCM3722, growth: C-lim chemostat, doubling time 6 h
[8] = wild type E. coli NCM3722, growth: C-lim chemostat, doubling time 12 h
[9] = wild type E. coli NCM3722, growth: N-lim chemostat, doubling time 6 h
[10] = wild type E. coli NCM3722, growth: N-lim chemostat, doubling time 12 h
[11] = wild type E. coli NCM3722, growth: P-lim chemostat, doubling time 6 h
[12] = wild type E. coli NCM3722, growth: P-lim chemostat, doubling time 12 h

Row | Sequence | total protein half-life in vivo [1] [h] | total protein half-life in vivo [2] [h] | total protein half-life in vivo [3] [h] | total protein half-life in vivo [4] [h] | total protein half-life in vivo [5] [h] | total protein half-life in vivo [6] [h] | total protein half-life in vivo [7] [h] | total protein half-life in vivo [8] [h] | total protein half-life in vivo [9] [h] | total protein half-life in vivo [10] [h] | total protein half-life in vivo [11] [h] | total protein half-life in vivo [12] [h]
1 | MSQIHKHTIPANIADRCLINPQQYEAMYQQSINVPDTFWGEQGKILDWIKPYQKVKNTSFAPGNVSIKWYEDGTLNLAANCLDRHLQENGDRTAIIWEGDDASQSKHISYKELHRDVCRFANTLLELGIKKGDVVAIYMPMVPEAAVAMLACARIGAVHSVIFGGFSPEAVAGRIIDSNSRLVITSDEGVRAGRSIPLKKNVDDALKNPNVTSVEHVVVLKRTGGKIDWQEGRDLWWHDLVEQASDQHQAEEMNAEDPLFILYTSGSTGKPKGVLHTTGGYLVYAALTFKYVFDYHPGDIYWCTADVGWVTGHSYLLYGPLACGATTLMFEGVPNWPTPARMAQVVDKHQVNILYTAPTAIRALMAEGDKAIEGTDRSSLRILGSVGEPINPEAWEWYWKKIGNEKCPVVDTWWQTETGGFMITPLPGATELKAGSATRPFFGVQPALVDNEGNPLEGATEGSLVITDSWPGQARTLFGDHERFEQTYFSTFKNMYFSGDGARRDEDGYYWITGRVDDVLNVSGHRLGTAEIESALVAHPKIAEAAVVGIPHNIKGQAIYAYVTLNHGEEPSPELYAEVRNWVRKEIGPLATPDVLHWTDSLPKTRSGKIMRRILRKIAAGDTSNLGDTSTLADPGVVEKLLEEKQAIAMPS | 4.67 ± 0.31 | 4.83 ± 0.67 | 3.24 ± 0.14 | 3.54 ± 0.24 | 3.221 ± 0.018 | 2.89 ± 0.091 | 4.91 ± 0.44 | 7.66 ± 0.46 | 3.88 ± 0.81 | 4.67 ± 0.55 | 4.28 ± 0.03 | 7.43 ± 0.81
2 | MTQTYNADAIEVLTGLEPVRRRPGMYTDTTRPNHLGQEVIDNSVDEALAGHAKRVDVILHADQSLEVIDDGRGMPVDIHPEEGVPAVELILCRLHAGGKFSNKNYQFSGGLHGVGISVVNALSKRVEVNVRRDGQVYNIAFENGEKVQDLQVVGTCGKRNTGTSVHFWPDETFFDSPRFSVSRLTHVLKAKAVLCPGVEITFKDEINNTEQRWCYQDGLNDYLAEAVNGLPTLPEKPFIGNFAGDTEAVDWALLWLPEGGELLTESYVNLIPTMQGGTHVNGLRQGLLDAMREFCEYRNILPRGVKLSAEDIWDRCAYVLSVKMQDPQFAGQTKERLSSRQCAAFVSGVVKDAFILWLNQNVQAAELLAEMAISSAQRRMRAAKKVVRKKLTSGPALPGKLADCTAQDLNRTELFLVEGDSAGGSAKQARDREYQAIMPLKGKILNTWEVSSDEVLASQEVHDISVAIGIDPDSDDLSQLRYGKICILADADSDGLHIATLLCALFVKHFRALVKHGHVYVALPPLYRIDLGKEVYYALTEEEKEGVLEQLKRKKGKPNVQRFKGLGEMNPMQLRETTLDPNTRRLVQLTIDDEDDQRTDAMMDMLLAKKRSEDRRNWLQEKGDMAEIEV | 5.85 ± 0.4 | 6.09 ± 0.22 | 5.29 ± 1.9 | 4.41 ± 0.076 | 3.56 ± 0.24 | 2.68 ± 0.1 | 4.78 ± 0.23 | 7.42 ± 0.43 | 3.79 ± 0.16 | 5.867 ± 0.054 | 3.96 ± 0.39 | 8.4 ± 0.31
3 | MEFFKKTALAALVMGFSGAALALPNITILATGGTIAGGGDSATKSNYTVGKVGVENLVNAVPQLKDIANVKGEQVVNIGSQDMNDNVWLTLAKKINTDCDKTDGFVITHGTDTMEETAYFLDLTVKCDKPVVMVGAMRPSTSMSADGPFNLYNAVVTAADKASANRGVLVVMNDTVLDGRDVTKTNTTDVATFKSVNYGPLGYIHNGKIDYQRTPARKHTSDTPFDVSKLNELPKVGIVYNYANASDLPAKALVDAGYDGIVSAGVGNGNLYKSVFDTLATAAKTGTAVVRSSRVPTGATTQDAEVDDAKYGFVASGTLNPQKARVLLQLALTQTKDPQQIQQIFNQY |  | 5.6 ± 1.2 | 6.41 ± 0.082 | 5.53 ± 0.3 | 6.23 ± 0.81 |  | 5.38 ± 0.38 | > 16 | 6.03 ± 0.47 | 12.3 ± 0.7 | 6.54 ± 0.46 | 13 ± 0.46
4 | MPLLDIRNLTIEFKTGDEWVKAVDRVSMTLTEGEIRGLVGESGSGKSLIAKAICGVNKDNWRVTADRMRFDDIDLLRLSARERRKLVGHNVSMIFQEPQSCLDPSERVGRQLMQNIPAWTYKGRWWQRFGWRKRRAIELLHRVGIKDHKDAMRSFPYELTEGECQKVMIAIALANQPRLLIADEPTNSMEPTTQAQIFRLLTRLNQNSNTTILLISHDLQMLSQWADKINVLYCGQTVETAPSKELVTMPHHPYTQALIRAIPDFGSAMPHKSRLNTLPGAIPLLEQLPIGCRLGPRCPYAQRECIVTPRLTGAKNHLYACHFPLNMEKE [P0AAH4] | 6.47 ± 1 | 5.65 ± 0.24 | 5.68 ± 0.59 | 5.96 ± 0.44 | 5.11 ± 0.24 | 2.86 ± 0.12 | 5.52 ± 0.2 | 11.19 ± 0.067 | 5.58 ± 0.23 | 10.5 ± 0.24 | 5.43 ± 0.13 | 10.9 ± 0.29
5 | MTHFSQQDNFSVAARVLGALFYYAPESAEAAPLVAVLTSDGWETQWPLPEASLAPLVTAFQTQCEETHAQAWQRLFVGPWALPSPPWGSVWLDRESVLFGDSTLALRQWMREKGIQFEMKQNEPEDHFGSLLLMAAWLAENGRQTECEELLAWHLFPWSTRFLDVFIEKAEHPFYRALGELARLTLAQWQSQLLIPVAVKPLFR | 3.98 ± 0.19 | 4.54 ± 1.1 | 4.18 ± 0.73 | 5.74 ± 1.5 | 4.5 ± 0.51 | 3 ± 0.17 | 5.45 | 11.7 ± 1.3 | 4.4 ± 0.41 | 7.72 ± 1.9 | 5.41 ± 0.39 | 11.3 ± 0.19

From the supplement of paper PMC11246515
